Numbering of substitutions follows the chain as printed. Each block holds one molecule with its values, some of them ahead of it.
Experiments:
[1] = biological target: T1, acetone carboxylase (XaAC) (Xanthobacter versatilis, UniProt Q8RM03+Q8RM04, Q8RM03:E89D); test: X-band EPR of active-site Mn(II); type: binding; settings: 10 mM AMP, 1 mM MgCl2; 50 mM Tris, pH 7.6, 150 mM NaCl; 12 K
T1 construct: gene acxA; recombinant from E. coli, His-NTA then Q-sepharose; 360 kDa α2β2γ2 heterohexamer with Mn(II); ATP/AMP site in beta subunit, Mn(II) site in alpha subunit; with Acetone carboxylase gamma subunit

[2] = biological target: T2, acetone carboxylase (XaAC) (Xanthobacter versatilis, UniProt Q8RM03+Q8RM04, Q8RM03:E89A); test: differential scanning fluorimetry, SYPRO orange; type: binding; settings: 10 mM AMP; 100 mM Tris, 100 mM KCl, pH 7.6; absolute Tm, not a shift
T2 construct: gene acxA; recombinant from E. coli, His-NTA then Q-sepharose; 360 kDa α2β2γ2 heterohexamer with Mn(II); ATP/AMP site in beta subunit, Mn(II) site in alpha subunit; with Acetone carboxylase gamma subunit

[3] = biological target: T3, acetone carboxylase (XaAC) (Xanthobacter versatilis, UniProt Q8RM03+Q8RM04); test: differential scanning fluorimetry, SYPRO orange; type: binding; design: gene acxA; recombinant from E. coli, His-NTA then Q-sepharose; 360 kDa α2β2γ2 heterohexamer with Mn(II); ATP/AMP site in beta subunit, Mn(II) site in alpha subunit; with Acetone carboxylase gamma subunit; settings: 10 mM AMP; 100 mM Tris, 100 mM KCl, pH 7.6; absolute Tm, not a shift
[4] = biological target: T3, acetone carboxylase (XaAC); design: gene acxA; settings: only tested together with AMP (10 mM AMP-acetate), 1 mM MgCl2, pH 7.6; Mn(II) site
[5] = biological target: T4, Xanthobacter autotrophicus acetone carboxylase α subunit (Xanthobacter autotrophicus, UniProt Q8RM03 1-776); test: SEC + native gel or EMSA; complexes co-purified from E. coli lysate (His-NTA, then Q-sepharose), stored in 50 mM Tris pH 7.6, 150 mM NaCl, 10% glycerol, then tested by size exclusion chromatography and native gel for integrity; settings: both partners purified
T4 construct: acetone carboxylase alpha subunit, Xanthobacter autotrophicus; holds the Mn(II) site (H150, D153, H175, E89); A His-NTA column was used, so one subunit probably carries a His tag; also called XaAC α; AC alpha subunit; source: E. coli, purified as the complex (His-NTA, Q-sepharose)
T4 sequence: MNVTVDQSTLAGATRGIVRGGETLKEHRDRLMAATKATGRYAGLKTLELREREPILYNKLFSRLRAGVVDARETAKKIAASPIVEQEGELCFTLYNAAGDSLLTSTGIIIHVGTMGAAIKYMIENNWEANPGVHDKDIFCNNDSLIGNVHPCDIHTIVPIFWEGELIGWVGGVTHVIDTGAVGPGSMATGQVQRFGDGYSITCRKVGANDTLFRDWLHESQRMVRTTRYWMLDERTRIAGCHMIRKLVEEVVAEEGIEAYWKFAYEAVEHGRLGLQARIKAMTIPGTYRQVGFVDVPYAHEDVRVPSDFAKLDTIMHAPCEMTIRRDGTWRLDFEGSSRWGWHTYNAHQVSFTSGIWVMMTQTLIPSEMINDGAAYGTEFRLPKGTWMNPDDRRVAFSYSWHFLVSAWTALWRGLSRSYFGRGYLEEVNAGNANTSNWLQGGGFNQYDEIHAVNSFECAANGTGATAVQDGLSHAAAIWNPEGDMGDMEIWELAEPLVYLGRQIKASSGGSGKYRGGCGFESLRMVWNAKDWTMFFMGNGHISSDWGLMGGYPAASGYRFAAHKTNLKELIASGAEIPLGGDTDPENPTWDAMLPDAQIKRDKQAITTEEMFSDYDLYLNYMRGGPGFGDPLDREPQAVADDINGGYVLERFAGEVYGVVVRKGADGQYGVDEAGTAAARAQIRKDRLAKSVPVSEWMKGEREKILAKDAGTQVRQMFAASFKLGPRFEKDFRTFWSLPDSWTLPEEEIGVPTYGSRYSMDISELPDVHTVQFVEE

[6] = biological target: T5, Xanthobacter autotrophicus acetone carboxylase α subunit, αE89D variant (Xanthobacter autotrophicus, UniProt Q8RM03 1-776, αE89D); test: as above; settings: both partners purified
T5 construct: acetone carboxylase alpha subunit, Xanthobacter autotrophicus, glutamate 89 substituted by aspartate; The PDB entries are of the wild-type parent; also called E89D XaAC; E89D AC; source: E. coli, purified as the complex (His-NTA, Q-sepharose)
T5 sequence: T4 sequence with E89D

[7] = biological target: T6, Xanthobacter autotrophicus acetone carboxylase α subunit, αE89A variant (Xanthobacter autotrophicus, UniProt Q8RM03 1-776, αE89A); test: as above; settings: both partners purified
T6 construct: acetone carboxylase alpha subunit, Xanthobacter autotrophicus, glutamate 89 substituted by alanine; The PDB entries are of the wild-type parent; also called E89A XaAC; E89A AC; source: E. coli, purified as the complex (His-NTA, Q-sepharose)
T6 sequence: T4 sequence with E89A

T2 sequence (Q8RM03 whole entry E89A, one chain of several): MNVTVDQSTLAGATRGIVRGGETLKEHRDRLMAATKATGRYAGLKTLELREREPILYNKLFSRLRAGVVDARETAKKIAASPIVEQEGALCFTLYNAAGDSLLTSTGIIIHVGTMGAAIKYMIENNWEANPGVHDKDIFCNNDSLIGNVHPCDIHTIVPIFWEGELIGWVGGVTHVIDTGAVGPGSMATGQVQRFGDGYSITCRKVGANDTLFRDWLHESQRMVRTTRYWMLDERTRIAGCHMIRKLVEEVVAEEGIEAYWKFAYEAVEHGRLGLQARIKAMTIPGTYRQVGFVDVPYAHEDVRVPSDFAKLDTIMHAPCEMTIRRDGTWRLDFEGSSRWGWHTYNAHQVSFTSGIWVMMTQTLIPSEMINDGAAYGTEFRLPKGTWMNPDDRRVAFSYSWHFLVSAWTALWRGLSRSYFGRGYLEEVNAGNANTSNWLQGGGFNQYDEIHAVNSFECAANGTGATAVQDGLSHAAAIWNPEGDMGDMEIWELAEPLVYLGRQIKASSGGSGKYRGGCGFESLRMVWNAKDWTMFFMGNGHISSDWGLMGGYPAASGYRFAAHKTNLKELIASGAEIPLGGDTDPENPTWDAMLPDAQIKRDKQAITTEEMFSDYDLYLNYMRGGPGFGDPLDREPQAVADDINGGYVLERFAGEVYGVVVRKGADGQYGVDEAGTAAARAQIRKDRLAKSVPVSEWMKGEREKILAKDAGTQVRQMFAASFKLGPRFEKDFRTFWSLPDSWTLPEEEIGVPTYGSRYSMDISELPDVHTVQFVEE
T1 sequence (Q8RM03 whole entry E89D, one chain of several): as the sequence (Q8RM03 whole entry E89A, one chain of several) above, with A89D counted along it

binding result [5]: binds
binding result [6]: binds
binding result [7]: binds
B1: Xanthobacter autotrophicus acetone carboxylase β subunit (enzyme)
chain: MNVPVGHLRNVQVLGIDAGGTMTDTFFVDQDGDFVVGKAQSTPQNEALGLIASSEDGLANWGMSLHEALAQLQTGVYSGTAMLNRVVQRKGLKCGLIVNRGMEDFHRMGRAVQSHLGYAYEDRIHLNTHRYDPPLVPRHLTRGVVERTDMIGTQVIPLREDTARDAARDLIAADAEGIVISLLHSYKNPENERRVRDIVLEEVEKSGKKIPVFASADYYPVRKETHRTNTTILEGYAAEPSRQTLSKISNAFKERGTKFDFRVMATHGGTISWKAKELARTIVSGPIGGVIGAKYLGEVLGYKNIACSDIGGTSFDVALITQGEMTIKNDPDMARLVLSLPLVAMDSVGAGAGSFIRLDPYTRAIKLGPDSAGYRVGVCWKESGIETVTISDCHMVLGYLNPDNFLGGAVKLDRQRSVDAIKAQIADPLGLSVEDAAAGVIELLDSDLRDYLRSMISGKGYSPASFVCFSYGGAGPVHTYGYTEGLGFEDVIVPAWAAGFSAFGCAAADFEYRYDKSLDINMPTETPDTDKEKAAATLQAAWEELTKNVLEEFKLNGYSADQVTLQPGYRMQYRGQLNDLEIESPLAQAHTAADWDQLTDAFNATYGRVYAASARSPELGYSVTGAIMRGMVPIPKPKIPKEPEEGETPPESAKIGTRKFYRKKRWVDAQLYHMESLRPGNRVMGPAVIESDATTFVVPDGFETWLDGHRLFHLREV
notes: acetone carboxylase beta subunit, Xanthobacter autotrophicus; also called XaAC β; AC beta subunit; source: E. coli, purified as the complex (His-NTA, Q-sepharose)

binding result [5]: binds
binding result [6]: binds
binding result [7]: binds
B2: Xanthobacter autotrophicus acetone carboxylase γ subunit (enzyme)
chain: MAYTRSKIVDLVDGKIDPDTLHQMLSTPKDPERFVTYVEILQERMPWDDKIILPLGPKLFIVQQKVSKKWTVRCECGHDFCDWKDNWKLSARVHVRDTPQKMEEIYPRLMAPTPSWQVIREYFCPECGTLHDVEAPTPWYPVIHDFSPDIEGFYQEWLGLPVPERADA
notes: acetone carboxylase gamma subunit, Xanthobacter autotrophicus; also called XaAC γ; AC gamma subunit; source: E. coli, purified as the complex (His-NTA, Q-sepharose)

The remaining lines, values behind:

Molecule: Nc1ncnc2c1ncn2[C@@H]1O[C@H](COP(=O)(O)O)[C@@H](O)[C@H]1O [AMP]
X-band EPR of active-site Mn(II) [1]: αE89D and the WT AC respond similarly to AMP binding
Tm [2]: 76 ± 0.4 °C
Tm [3]: 76.5 ± 0.5 °C

Molecule: CC(=O)O [acetate]
peptide-level and intact-protein HDX-MS [4]: when AMP and acetate were both present, seven of the eight peptides displayed opposite exchange patterns

From publication PMC12250083 (International Journal of Molecular Sciences, 2025)
